Source: article PMC8632329 (mAbs, 2021)
Substitutions are numbered along the chain they refer to. Values belong to the binder of their own block, whether it stands above or below them.

Tests used:
hVISTA-COMP-his [1] = molecular target: T1, hVISTA-COMP-his (Homo sapiens, UniProt Q9H7M9); assay: SPR
Target sequence in this assay (Q9H7M9 whole entry, looked up, tested part not stated): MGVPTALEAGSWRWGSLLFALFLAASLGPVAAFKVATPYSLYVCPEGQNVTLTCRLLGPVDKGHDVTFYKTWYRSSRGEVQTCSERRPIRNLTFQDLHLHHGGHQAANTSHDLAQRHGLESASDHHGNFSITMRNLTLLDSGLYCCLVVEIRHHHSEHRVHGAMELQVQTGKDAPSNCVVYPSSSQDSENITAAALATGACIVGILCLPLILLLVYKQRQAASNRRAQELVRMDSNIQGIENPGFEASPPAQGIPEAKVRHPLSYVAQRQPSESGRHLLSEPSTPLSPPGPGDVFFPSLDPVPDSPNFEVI

mVISTA-COMP-his = mVISTA-COMP-his (Mus musculus, UniProt Q9D659); assay: SPR
hVISTA-COMP-his [2] = molecular target: T1, hVISTA-COMP-his
Target sequence in this assay (Q9H7M9 33-168): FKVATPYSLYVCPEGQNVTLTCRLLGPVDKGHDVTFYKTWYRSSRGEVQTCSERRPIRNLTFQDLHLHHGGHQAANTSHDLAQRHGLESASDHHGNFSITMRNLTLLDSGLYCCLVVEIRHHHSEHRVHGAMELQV

hVISTA-Fc = hVISTA-Fc (Homo sapiens (Human)., UniProt Q9H7M9); assay: SPR
Chain of hVISTA-Fc (Q9H7M9 33-194): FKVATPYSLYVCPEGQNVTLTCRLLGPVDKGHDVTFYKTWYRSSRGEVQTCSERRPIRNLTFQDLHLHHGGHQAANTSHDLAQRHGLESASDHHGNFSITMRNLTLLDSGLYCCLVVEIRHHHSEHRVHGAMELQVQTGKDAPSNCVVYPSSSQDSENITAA

Chain of mVISTA-COMP-his (Q9D659 whole entry, looked up, tested part not stated): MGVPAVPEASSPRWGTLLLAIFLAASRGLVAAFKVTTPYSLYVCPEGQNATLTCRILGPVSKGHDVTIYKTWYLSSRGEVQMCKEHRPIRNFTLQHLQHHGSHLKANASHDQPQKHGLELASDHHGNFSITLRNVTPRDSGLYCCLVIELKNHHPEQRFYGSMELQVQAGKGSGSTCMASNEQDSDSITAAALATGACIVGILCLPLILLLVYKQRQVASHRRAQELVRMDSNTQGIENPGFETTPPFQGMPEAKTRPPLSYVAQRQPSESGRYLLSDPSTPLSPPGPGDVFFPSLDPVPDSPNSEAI

B1: rat anti-hmVISTA mAb 7C7 (antibody, V domains shown)
VH: EVQLVESGGGLVQPGRSLKLSCVASGFTFNKYWMSWTRQAPGKGLEWVASITNSGGNTYYPDSVKGRFTISRDNAQNTLYLQMNSLRSEDTATYYCTLGVDYWGQGAMVTVSS
VL: DVVMTQTPPSLSVTIGQSVSISCKSSQSLVYSDGKTYLHWLLQSSGRSPKRLIYQVSNLASGVPDRFSGTGSQKDFTLKISRVEAKDLGVYYCAQTTHFPYTFGAGTKLEMK
Kd (hVISTA-COMP-his [1]): 49 nM | Kd (mVISTA-COMP-his): 51 nM

B2: Nb3 [hVISTANb3] (VHH)
VHH: QVQLQESGGGLVHPGGSLRLSCAASGSVGTIFSMGWFRQAPGVQREMVATITNSGETNYAAFVKGRFTITRDNAQNTVYLQMNSLKPEDTAAYYCNAFDYVGGRTYELPYWGQGTQVTVSS
binding result (hVISTA-COMP-his [2]): binds

B5: Nb6 [hVISTANb6] (VHH)
VHH: B2 VHH with V28G, G29V, T70S, T77A
binding result (hVISTA-COMP-his [2]): binds

B6: anti-hVISTA nanobody hVISTANb7 (VHH)
VHH: QVQLQESGGGLVYPGGSLRLSCTASGFAFTNAYMNWVRQAPGKGAEWVSGITRDSNRTSYADSVKGRFTISRDNAKNTLYLQMDSLKSDDTALYYCNAEPSGWWLDDDYWGQGTQVTVSS
Kd (hVISTA-Fc): 7.5 nM

B7: murine anti-hVISTA mAb 7E12 (antibody, V domains shown)
VH: DVHLQESGPGLVKPSQSLSLTCSVTGYSITSGYYWNWIRQFPGNKLEWMGYISYDGNNNYNPSLKNRISITRDTSKNQFFLKLNSVTTEDTATYYCARGDYGSEAMDYWGQGTSVTVSS
VL: DIRVTQSPASLAVSLGQRATISCRASKSVSTSGYSYMNWYQQKPGQPPQLLIYLASNLESGVPARFSGSGSGTDFTLNIHPVEEEDAAIYYCQHSRELPWTFGGGTKLEIK
Kd (hVISTA-COMP-his [1]): 0.44 nM | binding result (mVISTA-COMP-his): no binding

Now from value to binder:

Kd (hVISTA-Fc): 11 nM
B3: anti-hVISTA nanobody hVISTANb1 (VHH)
VHH: B2 VHH with H13Q, T70S, Q75E

binding result (hVISTA-COMP-his [2]): binds
B4: Nb2 [hVISTANb2] (VHH)
VHH: B2 VHH with T70S, Q75E, V78M, Q81E, S84D

Kd (hVISTA-COMP-his [1]): 0.14 nM | binding result (mVISTA-COMP-his): no binding
B8: murine anti-hVISTA mAb 7G5 (antibody, V domains shown)
VH: QIQLVQSGPELKKPGETVKISCKASGYTFTNYGMNWVKQAPEKGLKWMGWINTYTGEPTYADDFKGRFAFSLETSASTAYLQINNLKNEDTATYFCARRSNPWPNDYWGQGTSLTVSS
VL: DIQMTQSPSSFSASLGERVSLTCRASQEISGYLSWLQQKPDGTIKRLIYAASTLDSGVPKRFSGSRSGSDYSLTISSLESEDFADYYCLQYASYPWTFGGGTKLEIK
